Reference: PMC1277809
Read-outs that look alike come from different tables or passages of the source.

How the values were obtained:
Assay in all cases: competition EMSA
LexA (DinR) wild type [1] = target: T1, LexA (DinR) wild type (Bacillus subtilis, UniProt P31080 1-205)
T1 sequence: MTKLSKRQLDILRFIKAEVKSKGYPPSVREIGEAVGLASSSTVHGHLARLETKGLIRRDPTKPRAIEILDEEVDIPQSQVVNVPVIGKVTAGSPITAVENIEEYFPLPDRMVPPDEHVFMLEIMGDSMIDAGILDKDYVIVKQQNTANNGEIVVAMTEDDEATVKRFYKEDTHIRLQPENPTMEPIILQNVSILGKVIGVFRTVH

LexA (DinR) wild type [2] = target: T1, LexA (DinR) wild type; remark: listed apart in the source
LexA (DinR) wild type [3] = target: T1, LexA (DinR) wild type; remark: listed apart in the source
LexA (DinR) wild type [4] = target: T1, LexA (DinR) wild type; remark: listed apart in the source
LexA (DinR) wild type [5] = target: T1, LexA (DinR) wild type; remark: listed apart in the source
LexA (DinR) wild type [6] = target: T1, LexA (DinR) wild type; remark: listed apart in the source
LexA (DinR) wild type [7] = target: T1, LexA (DinR) wild type; remark: listed apart in the source
LexA (DinR) wild type [8] = target: T1, LexA (DinR) wild type; remark: listed apart in the source
LexA (DinR) wild type [9] = target: T1, LexA (DinR) wild type; remark: listed apart in the source
LexA (DinR) wild type [10] = target: T1, LexA (DinR) wild type; remark: listed apart in the source
LexA (DinR) wild type [11] = target: T1, LexA (DinR) wild type; remark: listed apart in the source
LexA (DinR) wild type [12] = target: T1, LexA (DinR) wild type; remark: listed apart in the source
LexA (DinR) wild type [13] = target: T1, LexA (DinR) wild type; remark: listed apart in the source
LexA (DinR) wild type [14] = target: T1, LexA (DinR) wild type; remark: listed apart in the source
LexA (DinR) wild type [15] = target: T1, LexA (DinR) wild type; remark: listed apart in the source

B1: recA op T5C,A6T (dsDNA)
DNA 1: GGGGGGCGAACTTGCGTTCGCCCCCC
DNA 2: GGGGGGCGAACGCAAGTTCGCCCCCC
Ki (LexA (DinR) wild type [1]): 0.49 nM

B2: recA op T5C,G8A,C9T (preferred) (dsDNA)
DNA 1: GGGGGGCGAACATATGTTCGCCCCCC
DNA 2: GGGGGGCGAACATATGTTCGCCCCCC
Ki (LexA (DinR) wild type [2]): 0.17 nM

B3: recA op T5C,A6C (dsDNA)
DNA 1: GGGGGGCGAACCTGCGTTCGCCCCCC
DNA 2: GGGGGGCGAACGCAGGTTCGCCCCCC
Ki (LexA (DinR) wild type [3]): 0.56 nM

B4: recA op T7C (dsDNA)
DNA 1: GGGGGGCGAATACGCGTTCGCCCCCC
DNA 2: GGGGGGCGAACGCGTATTCGCCCCCC
Ki (LexA (DinR) wild type [4]): 7.8 nM

B5: recA op C1A,T5C (dsDNA)
DNA 1: GGGGGGAGAACATGCGTTCGCCCCCC
DNA 2: GGGGGGCGAACGCATGTTCTCCCCCC
Ki (LexA (DinR) wild type [5]): 0.42 nM

B6: recA op T5C (dsDNA)
DNA 1: GGGGGGCGAACATGCGTTCGCCCCCC
DNA 2: GGGGGGCGAACGCATGTTCGCCCCCC
Ki (LexA (DinR) wild type [6]): 0.22 nM

B7: recA op A6C (dsDNA)
DNA 1: GGGGGGCGAATCTGCGTTCGCCCCCC
DNA 2: GGGGGGCGAACGCAGATTCGCCCCCC
Ki (LexA (DinR) wild type [7]): 20 nM

B8: recA op C1A (dsDNA)
DNA 1: GGGGGGAGAATATGCGTTCGCCCCCC
DNA 2: GGGGGGCGAACGCATATTCTCCCCCC
Ki (LexA (DinR) wild type [8]): 11.4 nM

B9: recA op G2A,T5C (dsDNA)
DNA 1: GGGGGGCAAACATGCGTTCGCCCCCC
DNA 2: GGGGGGCGAACGCATGTTTGCCCCCC
Ki (LexA (DinR) wild type [9]): 5.2 nM

B10: recA op A6G (dsDNA)
DNA 1: GGGGGGCGAATGTGCGTTCGCCCCCC
DNA 2: GGGGGGCGAACGCACATTCGCCCCCC
Ki (LexA (DinR) wild type [10]): 6.4 nM

B11: recA op T7A (dsDNA)
DNA 1: GGGGGGCGAATAAGCGTTCGCCCCCC
DNA 2: GGGGGGCGAACGCTTATTCGCCCCCC
Ki (LexA (DinR) wild type [11]): 17.1 nM

B12: recA op C1G (dsDNA)
DNA 1: GGGGGGGGAATATGCGTTCGCCCCCC
DNA 2: GGGGGGCGAACGCATATTCCCCCCCC
Ki (LexA (DinR) wild type [12]): 53 nM

B13: recA op T5C,T7A (dsDNA)
DNA 1: GGGGGGCGAACAAGCGTTCGCCCCCC
DNA 2: GGGGGGCGAACGCTTGTTCGCCCCCC
Ki (LexA (DinR) wild type [13]): 0.62 nM

B14: recA op C1G,T5C (dsDNA)
DNA 1: GGGGGGGGAACATGCGTTCGCCCCCC
DNA 2: GGGGGGCGAACGCATGTTCCCCCCCC
Ki (LexA (DinR) wild type [14]): 1 nM

B15: recA op A6T (dsDNA)
DNA 1: GGGGGGCGAATTTGCGTTCGCCCCCC
DNA 2: GGGGGGCGAACGCAAATTCGCCCCCC
Ki (LexA (DinR) wild type [15]): 11.5 nM
